Substitutions are numbered along the chain they refer to. Names and notes keep the numbering of the source.
T1: Full-length RILPL2 as used in calorimetry (human, UniProt Q969X0 1-211)
T1 construct: also called RL2-FL
T1 sequence (looked up): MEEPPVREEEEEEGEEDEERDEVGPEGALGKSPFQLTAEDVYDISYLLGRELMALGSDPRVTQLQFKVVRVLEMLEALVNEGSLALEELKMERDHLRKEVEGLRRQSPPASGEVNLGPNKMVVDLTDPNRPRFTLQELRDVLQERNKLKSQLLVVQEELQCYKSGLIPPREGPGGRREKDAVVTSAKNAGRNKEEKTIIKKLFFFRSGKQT

B1: His6-RILPL2 129-165 synthetic peptide (minimal Rab-binding domain) (peptide, UniProt Q969X0 129-165, looked up)
chain: NRPRFTLQELRDVLQERNKLKSQLLVVQEELQCYKSG
notes: source: synthetic peptide (GenScript); not shown: His6, N-terminal, kept
B2: Rab8a(Q67L + T72E), phosphomimetic mutant, residues 1-181 (natural protein, human, UniProt P61006 1-181, looked up)
chain: MAKTYDYLFKLLLIGDSGVGKTCVLFRFSEDAFNSTFISTIGIDFKIRTIELDGKRIKLQIWDTAGLERFREITTAYYRGAMGIMLVYDITNEKSFDNIRNWIRNIEEHASADVEKMILGNKCDVNDKRQVSKERGEKLALDYGIKFMETSAKANINVENAFFTLARDIKAKMDKKLEGNS
notes: Rab8a, human, residues 1-181, Q67L + T72E; Tag removed with thrombin; also called Rab8^TE; Rab8TE; source: E. coli, purified (Ni2+-agarose, Superdex 75); not shown: His6, N-terminal, cleaved
B3: pRab8a(Q67L), human Rab8a residues 1-181 phosphorylated at T72, GTP-bound (natural protein, UniProt P61006 1-181, looked up)
chain: B2 chain with E72T
modifications: phosphothreonine at 72 (pT72)
notes: Tag removed with thrombin (pET28a, NdeI/BamHI); also called pRab8(Q67L); phospho-Rab8a; source: E. coli, purified (Ni2+-agarose, Superdex 75), phosphorylated in vitro by MST3 kinase, separated on MonoS; not shown: His6, N-terminal, cleaved
B4: RILPL2 extended Rab-binding domain, residues 117-165, tag cleaved (domain or fragment, human, UniProt Q969X0 117-165, looked up)
chain: GPNKMVVDLTDPNRPRFTLQELRDVLQERNKLKSQLLVVQEELQCYKSG
notes: Parallel coiled-coil dimer in the crystal; source: E. coli BL21(DE3), purified (Ni2+-agarose, TEV cleavage, MonoS); not shown: His6, N-terminal, cleaved; MBP, N-terminal, cleaved

Legend:
[1] = biological target: the molecule itself; assay: crystal structure; Rab8^TE:RL2^129, 1:2 molar ratio protein/peptide, 12 mg/mL; 100 mM HEPES pH 7, 10% PEG 4000, 10% 2-propanol; 1.7 A
[2] = biological target: B3; assay: ITC; Rab8^TE/pRab8a (400-600 uM) injected into RILPL2 (40-60 uM); 20 mM Tris-HCl, 150 mM NaCl, 5 mM MgCl2, 1 mM DTT, pH 7.5; triplicate; conditions: both partners purified
[3] = biological target: B2; assay: as above; conditions: both partners purified
[4] = biological target: B1; assay: as above; conditions: both partners purified
[5] = biological target: B4; assay: as above; conditions: both partners purified
[6] = biological target: T1, Full-length RILPL2 as used in …; assay: as above; conditions: both partners purified
[7] = biological target: the molecule itself; assay: crystal structure; pRab8(Q67L):RL2^117, 1:1 molar ratio, 5 mg/mL; 150 mM DL-malic acid, 20% PEG3350; 1.9 A

Binder: B1
binding result [1]: binds
Kd [2]: 3300 nM
Kd [3]: 3400 nM

Binder: B2
dH [4]: -2.7 kcal/mol
stoichiometry N [4]: 1.03

Binder: B3
dH [5]: -7.4 kcal/mol
stoichiometry N [5]: 1.1
dH [4]: -5.1 kcal/mol
stoichiometry N [4]: 0.92
Kd [6]: 1400 nM
dH [6]: -1.4 kcal/mol
stoichiometry N [6]: 1.04

Binder: B4
binding result [7]: binds
Kd [2]: 540 nM
